Source: patent US4740588A, “Novel substrate peptides” (Washington University, priority 1986, dated 1988)
Residues, ends and D or L forms follow the SMILES beside them.

Assays:
[1] = biological target: T1, N-myristoylglycylpeptide synthetase (N-myristoyl transferase) (Saccharomyces cerevisiae, UniProt P14743); experiment: Assay for N-myristoylglycylpeptide synthetase activity, crude membrane fractions from yeast; type: biochemical; conditions: for activity as substrate for myristoylglycylpeptide synthetase: result in words
T1 construct: using crude membrane fractions from yeast with changes as indicated; endogenous in cells; host or cells: S. cerevisiae strain JR153 (protease-deficient), crude membrane pellet of the cell lysate
T1 sequence (P14743 1-455): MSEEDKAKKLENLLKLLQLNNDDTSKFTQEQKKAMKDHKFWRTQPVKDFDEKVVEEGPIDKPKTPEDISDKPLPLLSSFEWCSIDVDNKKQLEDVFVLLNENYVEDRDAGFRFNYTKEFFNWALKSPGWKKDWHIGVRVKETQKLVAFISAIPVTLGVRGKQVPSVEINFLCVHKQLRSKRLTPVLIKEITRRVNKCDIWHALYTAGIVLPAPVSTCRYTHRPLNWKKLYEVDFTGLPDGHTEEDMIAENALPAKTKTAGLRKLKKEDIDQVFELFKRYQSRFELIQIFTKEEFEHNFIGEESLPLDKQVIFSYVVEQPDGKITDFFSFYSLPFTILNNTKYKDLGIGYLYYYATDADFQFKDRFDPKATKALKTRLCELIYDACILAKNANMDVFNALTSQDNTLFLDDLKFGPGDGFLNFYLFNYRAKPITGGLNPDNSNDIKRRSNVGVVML
Method: The synthetic octapeptide […]was used to identify a unique enzymatic activity which transfers myristic acid to the amino terminal glycine of this and other peptides. […] The enzyme activity was determined in an in vitro assay which measures the transfer of [^3 H]-myristic acid to the acceptor peptide. The transfer reaction is dependent on adenosine triphosphate (ATP) and coenzyme A (CoA). The enzymatic product was then identified by high performance liquid chromatography (HPLC) by co-elution with a chemically synthesized myristoyl peptide standard. […] Both contained M-myristoyl glycine.
Preparation of yeast extract for the assay of N-myristoylglycylpeptide synthetase activity. Yeast cultures were grown as described above to O.D. 660 nm of 1 to 3. Cells from 40 ml of culture were collected by centrifugation at 4° C. at 7600×g for 10 minutes. The supernatant was decanted, the cell pellet was resuspended by pipetting into 1 ml of cold 10 mM Tris, pH 7.4, transferred to a 1.5 ml conical polypropylene centrifuge tube, and the cells were then repelleted at 4° C. at 7600×g for 10 minutes. Cells were resuspended in 400 μl of cold assay lysis buffer (10 mM Tris, pH 7.4, 1 mM dithiothreitol,0.1 mM ethylene glycol-bis(β-aminoethyl ether) N,N,N',N'-tetraacetic acid (EGTA), 10 μg/ml Aprotinin) by pipetting. Approximately 400 μl of 0.5 mm glass beads were added to the resuspended cells, and the cells were lysed by vortexing as described above for lysis of radioactively labeled cells. After allowing the beads to settle, the lysate was collected and cellular debris was removed by centrifugation at 4° C. at 1000×g for 10 minutes. The supernatant was then centrifuged at 4° C. at 45,000 rpm for 30 minutes in a Beckman 75 Ti rotor. The supernatant was removed, and the crude membrane pellet was resuspended by pipetting into 400 μl of cold assay lysis buffer. Aliquots of the three cellular fractions were either assayed immediately or stored at -60° C. The activity associated with crude membranes was stable at -60° C. for at least 3 months. Protein was determined by the method of Peterson, Anal. Biochem. 83, 346-356 (1977).
Assay for N-myristoylglycylpeptide synthetase activity. [^3 H]Fatty acyl CoA was synthesized enzymatically and added to the incubation as follows. […] Typically, 40% to 50% of the [^3 H]fatty acid was converted to its CoA ester by this procedure as measured by determining the radioactivity remaining in the reaction after acidification with 6 N HCl to pH 2.0 and extraction 6 times with 5 volumes of heptane, a modification of the method of Hosaka et al., Meth. […]

[2] = substrate: CC(C)C[C@H](NC(=O)[C@@H]1CCCN1C(=O)[C@H](Cc1ccc(O)cc1)NC(=O)[C@H](CO)NC(=O)[C@H](C)NC(=O)[C@H](CCC(=O)O)NC(=O)[C@H](CC(N)=O)NC(=O)CN)C(N)=O; experiment: Peptide substrate specificity (Km, Vmax) of partially purified yeast myristoylating enzyme; type: biochemical, S. cerevisiae strain JR153; conditions: other: peptide as acyl acceptor, 1 μCi [3H]-myristic acid per tube, 30.0 °C
Method: (§1) Assay for N-myristoylglycylpeptide synthetase activity. [^3 H]Fatty acyl CoA was synthesized enzymatically and added to the incubation as follows. The acyl CoA synthetase reaction consisted of (per one assay tube): 0.5 μCi of [^3 H]myristic acid; 25 μl of 2× assay buffer (20 mM Tris, pH 7.4, 2 mM dithiothreitol, 10 mM MgCl2, 0.2 mM EGTA); 5 μl of 50 mM ATP in distilled water, adjusted to pH 7.0 with NaOH; 2.5 μl of 20 mM lithium CoA in distilled water; 15 μl of 1mU/μl of Pseudomonas acyl CoA synthetase (Sigma) in 50 mM N-2-hydroxyethylpiperazine-N'-2-ethane sulfonic acid, pH 7.3; 2.5 μl of distilled water. The reaction was allowed to proceed for 20 minutes at 30° C. Typically, 40% to 50% of the [^3 H]fatty acid was converted to its CoA ester by this procedure as measured by determining the radioactivity remaining in the reaction after acidification with 6 N HCl to pH 2.0 and extraction 6 times with 5 volumes of heptane, a modification of the method of Hosaka et al., Meth. […] The assay was initiated by the addition of 10 μl of yeast cell extract (typically 50 μg of protein) per tube, followed by incubation at 30° C. for 10 min. The assay was terminated by the addition of 110 μl of methanol and 10 μl of 100% trichloracetic acid (w/v) per tube, followed by cooling ten minutes on ice. Precipitated protein was removed by centrifugation at 8000×g for 3 minutes in a tabletop Eppendorf centrifuge. […] One minute fractions were collected and the radioactivity in each fraction determined by liquid scintillation counting. [^3 H]-Myristoyl-[sequence]eluted at 24 minutes, while [^3 H]palmitoyl-[sequence]eluted at 30 minutes.
(§2) The peptide substrate specificity of the enzyme was tested under the assay conditions described in Example 2 but using 1 μCi of [^3 H]-myristic acid per assay tube. The yeast enzyme used in this example was partially purified from a crude homogenate of the cultured yeast cells by fractionation with 51-70% (NH4)2 SO4 followed by ion exchange column chromatography with DEAE-Sepharose® CL-6B (Pharmacia) and affinity chromatography with CoA-agarose affinity matrix (Pharmacia).

[3] = substrate: C[C@H](NC(=O)[C@H](C)NC(=O)[C@H](Cc1ccccc1)NC(=O)[C@H](CC(N)=O)NC(=O)CN)C(=O)N[C@@H](C)C(=O)N[C@@H](CCCNC(=N)N)C(=O)N[C@@H](CCCNC(=N)N)C(N)=O; experiment: as above; type: biochemical, S. cerevisiae strain JR153; conditions: other: peptide as acyl acceptor, 1 μCi [3H]-myristic acid per tube, 30.0 °C
Method: as §1, §2

[4] = substrate: C[C@H](NC(=O)CN)C(=O)N[C@@H](CCC(N)=O)C(=O)N[C@@H](C)C(=O)N[C@@H](C)C(=O)N[C@@H](C)C(=O)N[C@@H](CCCNC(=N)N)C(=O)N[C@@H](CCCNC(=N)N)C(N)=O; experiment: as above; type: biochemical, S. cerevisiae strain JR153; conditions: other: peptide as acyl acceptor, 1 μCi [3H]-myristic acid per tube, 30.0 °C
Method: as §1, §2

[5] = substrate: C[C@H](NC(=O)[C@H](C)NC(=O)[C@H](C)NC(=O)[C@H](CO)NC(=O)CN)C(=O)N[C@@H](C)C(=O)N[C@@H](CCCNC(=N)N)C(=O)N[C@@H](CCCNC(=N)N)C(N)=O; experiment: as above; type: biochemical, S. cerevisiae strain JR153; conditions: other: peptide as acyl acceptor, 1 μCi [3H]-myristic acid per tube, 30.0 °C
Method: as §1, §2

[6] = substrate: C[C@H](NC(=O)[C@H](C)NC(=O)[C@H](CC(N)=O)NC(=O)CN)C(=O)N[C@@H](CO)C(N)=O; experiment: as above; type: biochemical, S. cerevisiae strain JR153; conditions: other: peptide as acyl acceptor, 1 μCi [3H]-myristic acid per tube, 30.0 °C
Method: as §1, §2

[7] = substrate: C[C@H](NC(=O)[C@H](C)NC(=O)[C@H](C)NC(=O)[C@H](CCC(N)=O)NC(=O)CN)C(=O)N[C@@H](C)C(=O)N[C@@H](CCCNC(=N)N)C(=O)N[C@@H](CCCNC(=N)N)C(N)=O; experiment: as above; type: biochemical, S. cerevisiae strain JR153; conditions: other: peptide as acyl acceptor, 1 μCi [3H]-myristic acid per tube, 30.0 °C
Method: as §1, §2

[8] = substrate: C[C@H](NC(=O)[C@H](C)NC(=O)[C@H](CCC(=O)O)NC(=O)[C@H](CC(N)=O)NC(=O)CN)C(=O)N[C@@H](C)C(=O)N[C@@H](CCCNC(=N)N)C(=O)N[C@@H](CCCNC(=N)N)C(N)=O; experiment: as above; type: biochemical, S. cerevisiae strain JR153; conditions: other: peptide as acyl acceptor, 1 μCi [3H]-myristic acid per tube, 30.0 °C
Method: as §1, §2

[9] = substrate: C[C@H](NC(=O)[C@H](C)NC(=O)[C@H](CCCNC(=N)N)NC(=O)[C@H](CC(N)=O)NC(=O)CN)C(=O)N[C@@H](C)C(=O)N[C@@H](CCCNC(=N)N)C(=O)N[C@@H](CCCNC(=N)N)C(N)=O; experiment: as above; type: biochemical, S. cerevisiae strain JR153; conditions: other: peptide as acyl acceptor, 1 μCi [3H]-myristic acid per tube, 30.0 °C
Method: as §1, §2

[10] = substrate: C[C@H](NC(=O)[C@H](C)NC(=O)[C@H](C)NC(=O)[C@H](C)NC(=O)[C@H](CC(N)=O)NC(=O)CN)C(N)=O; experiment: as above; type: biochemical, S. cerevisiae strain JR153; conditions: other: peptide as acyl acceptor, 1 μCi [3H]-myristic acid per tube, 30.0 °C
Method: as §1, §2

With `NCC(=O)N[C@@H](CC(N)=O)C(N)=O` [GN, Gly-Asn] (H-Gly-Asn-NH2) the “activity as substrate for myristoylglycylpeptide synthetase” value (from here on “activity as substrate”) [1] was “inactive”.

GSSKSPKDPS was tested, and the “Rate of Myristoylpeptide Synthesis” value ([1]; Test 3: 1 mM test peptide added as competitor, 18 μM GlyAsnAlaAlaAlaAlaArgArg substrate, control 26.7) was 27.4 DPM × 10^3 /10 min and the “activity as substrate” value [1] was “inactive”.

With `N=C(N)NCCC[C@H](NC(=O)[C@@H]1CCCN1C(=O)CN)C(=O)N1CCC[C@H]1C(N)=O` [GPRP, Gly-Pro-Arg-Pro] (H-GPRP-NH2) the “activity as substrate” value [1] was “inactive”.

B1: Yeast Myristoylating Enzyme (Saccharomyces cerevisiae S288C) (protein)
chain: MSEEDKAKKLENLLKLLQLNNDDTSKFTQEQKKAMKDHKFWRTQPVKDFDEKVVEEGPIDKPKTPEDISDKPLPLLSSFEWCSIDVDNKKQLEDVFVLLNENYVEDRDAGFRFNYTKEFFNWALKSPGWKKDWHIGVRVKETQKLVAFISAIPVTLGVRGKQVPSVEINFLCVHKQLRSKRLTPVLIKEITRRVNKCDIWHALYTAGIVLPAPVSTCRYTHRPLNWKKLYEVDFTGLPDGHTEEDMIAENALPAKTKTAGLRKLKKEDIDQVFELFKRYQSRFELIQIFTKEEFEHNFIGEESLPLDKQVIFSYVVEQPDGKITDFFSFYSLPFTILNNTKYKDLGIGYLYYYATDADFQFKDRFDPKATKALKTRLCELIYDACILAKNANMDVFNALTSQDNTLFLDDLKFGPGDGFLNFYLFNYRAKPITGGLNPDNSNDIKRRSNVGVVML
notes: partially purified from a crude homogenate of the cultured yeast cells; endogenous in cells; host or cells: S. cerevisiae strain JR153
In the case of B1, the Km [2] is reported as 2300 µM, the Km [3] is reported as 60 µM and the Km [4] is reported as 1400 µM. It also gave a Km [5] of 1700 µM, a Km [6] of 900 µM and a Km [7] of 70 µM. For the same molecule, the Km [8] was 1800 µM, the Km [9] was 400 µM and the Km [10] was 1300 µM.
